# From US20050038228A1
# Key:
# [1] = biological target: rheumatoid factor in serum of rheumatism patients (human); test: batch adsorption with γ-sterilized adsorbent: 100 µL adsorbent with 600 µL rheumatism patient serum, 37° C., 2 h; rheumatoid factor depletion from the supernatant
# [2] = biological target: IgG in healthy human serum (human); test: batch adsorption as in Example 7 with γ-sterilized adsorbent and healthy human serum; IgG depletion from the supernatant
# [3] = biological target: anti-β1 adrenoceptor antibody in serum of patients with dilated cardiomyopathy (human); test: batch adsorption with γ-sterilized adsorbent and dilated cardiomyopathy patient serum; antibody left in the supernatant measured by ELISA on the β1-adrenoceptor second loop peptide
# [4] = biological target: immune complex prepared by heating a human IgG solution (10 mg/mL) at 63° C. for 15 minutes (human); test: batch adsorption from healthy human serum spiked with immune complex (20 µg/mL); supernatant measured with a C1q-CIC kit
# [5] = biological target: immune complex prepared by heating a human IgG solution (10 mg/mL) at 63° C. for 15 minutes (human); test: batch adsorption after γ-ray sterilization (25 kGy) from healthy human serum spiked with immune complex (20 µg/mL); supernatant measured with a C1q-CIC kit
# [6] = biological target: IgG in healthy human serum (human); test: batch adsorption after γ-ray sterilization (25 kGy): 100 µL adsorbent with 300 µL healthy human serum, 37° C., 2 h; IgG depletion from the supernatant
# [7] = biological target: IgG in healthy human serum (human); test: batch adsorption: 100 µL adsorbent with 300 µL healthy human serum, 37° C., 2 h; IgG depletion from the supernatant against a saline control
Binder,Adsorption ratio of rheumatoid factor (%) [1],Adsorption ratio of an immune complex before sterilization (%) [4],Adsorption ratio of an immune complex after sterilization (%) [5],other results
C15 peptide (peptide) peptide: MTTYKLVINGKTLKGETTTKAVDAETAERAFRQYANDNGVEGLWTYDPATKTFTVTEC,,85.2%,84.1%,
C24 peptide (peptide) peptide: MTTYKLVINGKTLKGETTTKAVDAETAERAFRKYANDNGVDGMWTYDPATKTFTVTEC,,81.5%,80.5%,
CO4 peptide (peptide) peptide: MTTYKLVINGKTLKGETTTKAVDAETAERAFRKYANDNGVEGIWTYDPATKTFTVTEC,,,,Adsorption ratio of IgG after sterilization (%) [6]: 90.2%; Adsorption ratio of IgG before sterilization (%) [7]: 97.1%
B04 peptide (peptide) peptide: MTTYKLVINGKTLKGETTTKAVDAETAERAFRKYATDNGVDGMWTYDPATKTFTVTEC,,92.4%,91.6%,

# Continued, in another order:
Adsorption ratio of rheumatoid factor (%) [1],Adsorption ratio of an immune complex before sterilization (%) [4],Adsorption ratio of an immune complex after sterilization (%) [5],Binder,other results
34.4%,,,MG56 peptide (peptide) peptide: MTTYKLVINGKTLKGETTTKAVDAETAEKAFKQYANDNGVDGVWTYDDATKTFTVTE,
56.3%,,,C36 peptide (peptide) peptide: MTTYKLVINGKTLKGETTTKAVDAETAERAFRQYATDNGVEGMWTYDPATKTFTVTEC,Adsorption ratio of IgG (%) [2]: 59.7%; Adsorption ratio of β1 adrenoceptor (%) [3]: 77.8%
